# Article PMC9785812 (Pharmaceutics, 2022)
# Like-named read-outs stand apart in the source and are kept apart here.
# Experiments:
# [1] = Shelf life in radiolabeling buffer at room temperature (iTLC); type: physicochemical; settings: radiolabeling buffer (0.15 M NaOAc, pH 4.7), up to 7 days, iTLC-SG, gamma counter
# Description: Radiolabeling was performed by adding up to 200 MBq of the ^153Sm radiolabeling solution to 20 nmol of the DOTA-TATE precursor dissolved in 0.15 M NaOAc buffer (pH 4.7) in a total reaction volume of 1 mL. The reaction vial was placed in a Thermomixer C (Eppendorf) to stir (500 rpm) and the mixture was heated to 95 °C for 15 min. After incubation, the radiolabeling yield was evaluated using thin-layer chromatography. An amount of 1–2 µL of the reaction mixture was spotted on a glass microfiber chromatography paper strip impregnated with silica gel (iTLC-SG, Agilent Technologies, Diegem, Belgium) that was eluted with a 0.5 M citrate solution (pH 5.5). After elution, the TLC papers were cut in half and the activity of the bottom and top part of the TLC paper was counted for 2 min each using an automated gamma counter.
# After 1 h, 3 days, 5 days and 7 days, a 5 µL sample was spotted on the TLC system described above to identify the intact fraction.
# CA20948 cells = experiment: MTS viability assay; type: cell-based, rat; settings: 4 h treatment, MTS after 4 days, relative to untreated cells, mean ± SD
# Description: Rat pancreatic cancer cell line CA20948 was used given the somatostatin receptor 2 (SSTR2) overexpression as it is found in many human neuroendocrine tumors. Cells were grown in DMEM High Glucose and Pyruvate medium (Gibco 41966029) supplemented with 10% fetal bovine serum (Gibco 10270106) and 100 U/mL penicillin-streptomycin (Sigma-Aldrich P4333) and were maintained in a humidified incubator at 37 °C with 5% CO2 supply. All in vitro results were obtained from a minimum of three replicates per condition.
# A total of 10,000 cells were seeded per well into a 96-well plate (31,250 cells/cm²). […] After 4 h incubation at 37 °C in 5% CO2, cells were washed and new medium was added. Then, after 4 days, MTS reagent was prepared according to the manufacturer’s instructions and added to the cells. Absorbance was measured at 490 nm using the BioTek Synergy H1 reader (Agilent). Cell viability was obtained as the ratio of the absorbance of a sample well to the average absorbance of untreated (0 MBq/mL) wells, after subtraction of the background signal of wells containing MTS reagent without cells. Statistical significance (p < 0.05) was determined using linear models.
# [2] = Ex vivo biodistribution in healthy BALB/c mice; set-up: species or system mouse; settings: mouse, iv; for tissue uptake dose at 1 h / tissue uptake dose at 24 h / tissue uptake dose at 72 h / SUV at 1 h / SUV at 4 h / SUV at 24 h / SUV at 72 h / tissue uptake dose at 4 h: total radioactivity
# Description: Quantification of activity was performed with an automated gamma counter equipped with a 3-in NaI(Tl) detector coupled to a multichannel analyzer (2480 Wizard^2, Perkin Elmer, Zaventem, Belgium). The results were corrected for background signal, physical decay during counting and detector dead time.
# All animal experiments were performed in compliance with the Ethical Committee Animal Studies of Medanex Clinic (EC MxCl 2020-163 and EC MxCl 2021-173), the Belgian laboratory animal legislation and the European Communities Council Directive of 22 September 2010 (2010/63/EU). Male BALB/c and NMRI nude mice were purchased from Janvier (Bio Services, Uden, The Netherlands) and housed in ventilated cages under standard laboratory conditions (12 h light/dark cycle) at the animal facility of SCK CEN. All animals had access to food and water ad libitum.
# Additionally, similar biodistribution studies were performed with free (unlabeled) [^153Sm]SmCl3 to identify the organs with ^153Sm accumulation in case of release from the complex. […] The mice were sacrificed by an overdose pentobarbital (200 µL of 60 mg/mL) 1, 4, 24 and 72 h post-injection (p.i.) (n = 3–4 per time point). Blood was collected via cardiac puncture. Organs of interest were collected in tared tubes and weighed. The activity in the different organs was measured in the gamma counter. For the calculation of the total activity in the blood, bone and muscle, the masses were assumed to be, respectively, 7, 12 and 40% of the total body mass. Data were expressed as a percentage of injected activity (%IA) and standardized uptake value (SUV). %IA was calculated as (counts per min (cpm) in organ)/(IA converted to cpm) × 100. SUV was calculated as (activity in cpm in organ/weight of organ in g)/(IA/total body weight in g).
# [3] = male, BALB/c, bone, read-out: Bone %IA
# [4] = male, BALB/c, bone, read-out: Bone SUV
# [5] = male, BALB/c, in vivo, read-out: Excreted %IA
# [6] = male, BALB/c, intestines, read-out: Intestines %IA
# [7] = male, BALB/c, kidneys, read-out: Kidneys SUV
# [8] = male, BALB/c, liver, read-out: Liver SUV
# [9] = male, BALB/c, muscle, read-out: Muscle %IA
# [10] = male, BALB/c, pancreas, read-out: Pancreas %IA
# [11] = male, BALB/c, spleen, read-out: Spleen %IA
# [12] = male, BALB/c, spleen, read-out: Spleen SUV
compound,measurement,setting,value
"C[C@@H](O)[C@H](NC(=O)[C@@H]1CSSC[C@H](NC(=O)[C@@H](Cc2ccccc2)NC(=O)CN2CCN(CC(=O)O)CCN(CC(=O)O)CCN(CC(=O)O)CC2)C(=O)N[C@@H](Cc2ccc(O)cc2)C(=O)N[C@H](Cc2c[nH]c3ccccc23)C(=O)N[C@@H](CCCCN)C(=O)N[C@@H]([C@@H](C)O)C(=O)N1)C(=O)O [[^153Sm]Sm-DOTA-TATE, metal not drawn]",radiochemical purity (intact fraction),[1],> 98%
same,cell viability,CA20948 cells; 1.25 MBq/mL,significantly lowered viability
same,"cell viability, reduced down to",CA20948 cells; lowest viability over 0-10 MBq/mL,48 ± 6%
same,tissue uptake dose at 1 h,"[2]; male, BALB/c, blood, read-out: Blood %IA",0.7 ± 0.3 %ID
same,tissue uptake dose at 1 h,[2]; [3],0.8 ± 0.4 %ID
same,tissue uptake dose at 24 h,[2]; [3],0.7 ± 0.1 %ID
same,tissue uptake dose at 72 h,[2]; [3],0.6 ± 0.1 %ID
same,SUV at 1 h,[2]; [4],0.1 SUV
same,SUV at 4 h,[2]; [4],0.1 SUV
same,SUV at 24 h,[2]; [4],0.1 SUV
same,SUV at 72 h,[2]; [4],0.1 SUV
same,SUV at 1 h,"[2]; male, BALB/c, heart, read-out: Heart SUV",0.1 SUV
same,tissue uptake dose at 1 h,[2]; [5],82 ± 4.8 %ID
same,tissue uptake dose at 4 h,[2]; [5],90.2 ± 0.7 %ID
same,tissue uptake dose at 24 h,[2]; [5],96.6 ± 0.4 %ID
same,tissue uptake dose at 1 h,[2]; [6],0.6 ± 0.1 %ID
same,tissue uptake dose at 4 h,[2]; [6],0.5 %ID
same,tissue uptake dose at 72 h,[2]; [6],0.1 %ID
same,tissue uptake dose at 4 h,"[2]; male, BALB/c, kidneys, read-out: Kidneys %IA",3.2 ± 0.1 %ID
same,SUV at 24 h,[2]; [7],0.4 ± 0.1 SUV
same,SUV at 72 h,[2]; [7],0.1 SUV
same,tissue uptake dose at 4 h,"[2]; male, BALB/c, liver, read-out: Liver %IA",2.5 ± 0.8 %ID
same,SUV at 1 h,[2]; [8],0.4 ± 0.1 SUV
same,SUV at 24 h,[2]; [8],0.3 SUV
same,tissue uptake dose at 1 h,"[2]; male, BALB/c, lungs, read-out: Lungs %IA",0.1 %ID
same,SUV at 4 h,"[2]; male, BALB/c, lungs, read-out: Lungs SUV",0.1 SUV
same,tissue uptake dose at 4 h,[2]; [9],1.1 ± 0.5 %ID
same,tissue uptake dose at 24 h,[2]; [9],0.1 %ID
same,tissue uptake dose at 72 h,[2]; [9],0.1 %ID
same,SUV at 1 h,"[2]; male, BALB/c, muscle, read-out: Muscle SUV",0.6 ± 0.3 SUV
same,tissue uptake dose at 1 h,[2]; [10],0.1 %ID
same,tissue uptake dose at 4 h,[2]; [10],0.1 %ID
same,SUV at 4 h,"[2]; male, BALB/c, pancreas, read-out: Pancreas SUV",0.1 SUV
same,tissue uptake dose at 1 h,[2]; [11],0.3 ± 0.1 %ID
same,tissue uptake dose at 4 h,[2]; [11],0.3 %ID
same,tissue uptake dose at 24 h,[2]; [11],0.3 ± 0.1 %ID
same,tissue uptake dose at 72 h,[2]; [11],0.1 %ID
same,SUV at 24 h,[2]; [12],0.9 ± 0.3 SUV
same,SUV at 72 h,[2]; [12],0.3 ± 0.1 SUV
same,tissue uptake dose at 4 h,"[2]; male, BALB/c, stomach, read-out: Stomach %IA",0.1 ± 0.1 %ID
same,SUV at 1 h,"[2]; male, BALB/c, whole blood, read-out: Blood SUV",0.1 SUV
same,tissue uptake dose at 4 h,"[2]; blood, 4 h p.i., healthy male BALB/c mice, ~2-3 MBq i.v., mean ± SD, n = 3-4, read-out: Blood %IA",0.2 %ID
same,tissue uptake dose at 4 h,"[2]; bone, 4 h p.i., healthy male BALB/c mice, ~2-3 MBq i.v., mean ± SD, n = 3-4, read-out: Bone %IA",0.6 ± 0.2 %ID
same,Blood %IA,[2]; in vivo,0.0 ± 0.0 %IA
same,Blood SUV,[2]; in vivo,0.0 ± 0.0
same,Brain %IA,[2]; in vivo,0.0 ± 0.0 %IA
same,Brain SUV,[2]; in vivo,0.0 ± 0.0
same,Heart %IA,[2]; in vivo,0.0 ± 0.0 %IA
same,Heart SUV,[2]; in vivo,0.0 ± 0.0
same,Lungs %IA,[2]; in vivo,0.0 ± 0.0 %IA
same,Lungs SUV,[2]; in vivo,0.0 ± 0.0
same,Muscle SUV,[2]; in vivo,0.0 ± 0.0
same,Pancreas %IA,[2]; in vivo,0.0 ± 0.0 %IA
same,Pancreas SUV,[2]; in vivo,0.0 ± 0.0
same,Stomach %IA,[2]; in vivo,0.0 ± 0.0 %IA
same,tissue uptake dose at 72 h,"[2]; in vivo, 72 h p.i., healthy male BALB/c mice, ~2-3 MBq i.v., mean ± SD, n = 3-4, read-out: Excreted %IA",97.8 ± 0.2 %ID
same,tissue uptake dose at 24 h,"[2]; intestines, 24 h p.i., healthy male BALB/c mice, ~2-3 MBq i.v., mean ± SD, n = 3-4, read-out: Intestines %IA",0.2 %ID
same,tissue uptake dose at 24 h,"[2]; kidneys, 24 h p.i., healthy male BALB/c mice, ~2-3 MBq i.v., mean ± SD, n = 3-4, read-out: Kidneys %IA",0.7 ± 0.2 %ID
same,tissue uptake dose at 72 h,"[2]; kidneys, 72 h p.i., healthy male BALB/c mice, ~2-3 MBq i.v., mean ± SD, n = 3-4, read-out: Kidneys %IA",0.2 %ID
same,SUV at 4 h,"[2]; liver, 4 h p.i., healthy male BALB/c mice, ~2-3 MBq i.v., mean ± SD, n = 3-4, read-out: Liver SUV",0.5 ± 0.2 SUV
same,tissue uptake dose at 24 h,"[2]; liver, 24 h p.i., healthy male BALB/c mice, ~2-3 MBq i.v., mean ± SD, n = 3-4, read-out: Liver %IA",1.6 ± 0.2 %ID
same,tissue uptake dose at 72 h,"[2]; liver, 72 h p.i., healthy male BALB/c mice, ~2-3 MBq i.v., mean ± SD, n = 3-4, read-out: Liver %IA",1.2 ± 0.2 %ID
same,SUV at 72 h,"[2]; liver, 72 h p.i., healthy male BALB/c mice, ~2-3 MBq i.v., mean ± SD, n = 3-4, read-out: Liver SUV",0.2 SUV
same,SUV at 1 h,"[2]; lungs, 1 h p.i., healthy male BALB/c mice, ~2-3 MBq i.v., mean ± SD, n = 3-4, read-out: Lungs SUV",0.2 SUV
same,SUV at 4 h,"[2]; muscle, 4 h p.i., healthy male BALB/c mice, ~2-3 MBq i.v., mean ± SD, n = 3-4, read-out: Muscle SUV",0.2 ± 0.1 SUV
same,SUV at 1 h,"[2]; pancreas, 1 h p.i., healthy male BALB/c mice, ~2-3 MBq i.v., mean ± SD, n = 3-4, read-out: Pancreas SUV",0.2 SUV
same,SUV at 1 h,"[2]; spleen, 1 h p.i., healthy male BALB/c mice, ~2-3 MBq i.v., mean ± SD, n = 3-4, read-out: Spleen SUV",0.8 ± 0.2 SUV
same,SUV at 4 h,"[2]; spleen, 4 h p.i., healthy male BALB/c mice, ~2-3 MBq i.v., mean ± SD, n = 3-4, read-out: Spleen SUV",0.8 ± 0.2 SUV
same,tissue uptake dose at 1 h,"[2]; stomach, 1 h p.i., healthy male BALB/c mice, ~2-3 MBq i.v., mean ± SD, n = 3-4, read-out: Stomach %IA",0.2 %ID
